The text below walks through data of patent publication US20030078191A1.

Holding throughout (assay): cell-based or functional assay
The target in assay [1] is Gal4 activation domain alone (pGAD424 vector, no fusion) (UniProt P04386).
Assay [2] deals with Gal4ad-ZipA(185-328) fusion (pGAD424 fusion) (Escherichia coli) (UniProt P77173).
For assay [3], the target named is Gal4ad-ZipA(185-302) fusion (pGAD424 fusion) (Escherichia coli).
The target of assay [4] is Gal4ad-ZipA(35-284) fusion (pGAD424 fusion) (Escherichia coli).
Chain of Gal4ad-ZipA(35-284) fusion (pGAD424 fusion) (Escherichia coli) (P04386 768-881): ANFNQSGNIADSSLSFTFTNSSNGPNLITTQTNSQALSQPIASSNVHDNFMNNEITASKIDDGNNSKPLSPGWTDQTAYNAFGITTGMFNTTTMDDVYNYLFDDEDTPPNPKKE
Assay [5] addresses Gal4ad-ZipA(62-328) fusion (pGAD424 fusion) (Escherichia coli).
In assay [6] the target is Gal4ad-ZipA(35-185) fusion (pGAD424 fusion) (Escherichia coli).
Chain of Gal4ad-ZipA(35-185) fusion (pGAD424 fusion) (Escherichia coli) (P04386 768-881): as above

Chain of Gal4 activation domain alone (pGAD424 vector, no fusion) (P04386 768-881 limits assumed): as the sequence (P04386 768-881) above
Chain of Gal4ad-ZipA(185-302) fusion (pGAD424 fusion) (Escherichia coli) (P04386 768-881): as above
Chain of Gal4ad-ZipA(62-328) fusion (pGAD424 fusion) (Escherichia coli) (P04386 768-881): as above

Regarding “Gal4 DNA-binding domain alone (pAS2-1 vector, no fusion) (from UniProt P04386 1-147)”, the beta-galactosidase (lacZ reporter) activity, MUG fluorescence, yeast two-hybrid in assay [1] turned out to be 621 units; in assay [2] it was 877 units; in assay [3], 1120 units; in assay [4], 832 units; in assay [5], 743 units; in assay [6], 930 units.
